Laboratory results published in the supplement of paper PMC9112550, “Optimization of the antimicrobial peptide Bac7 by deep mutational scanning” (BMC Biology, 2022).

System: Escherichia coli TOP10
Assay: shrunken log2 fold change of peptide-encoding DNA abundance (4.5 h post-induction vs induction); higher = less antimicrobial activity (less host growth inhibition)
Conditions: time post-induction: 4.5 h; library: site-saturation at positions 5, 18, 19, 20
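Further: peptides expressed intracellularly from a pBAD plasmid library in pooled LB shake-flask culture, induced with 0.3% L-arabinose, DNA abundance read by NGS, three biological replicates, DESeq2 with apeglm shrinkage.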

Sequence: RRIRDRPPRLPRPRPRPPAQPRP
- shrunken log2 fold change: 0.296

Sequence: RRIRDRPPRLPRPRPRPCQTPRP
- shrunken log2 fold change: 0.00442

Sequence: RRIRYRPPRLPRPRPRPHSFPRP
- shrunken log2 fold change: -0.00356

Sequence: RRIRQRPPRLPRPRPRPVSFPRP
- shrunken log2 fold change: -0.309

Sequence: RRIRTRPPRLPRPRPRPWTQPRP
- shrunken log2 fold change: 0.0256

Sequence: RRIRCRPPRLPRPRPRPRYIPRP
- shrunken log2 fold change: -0.035

Sequence: RRIRQRPPRLPRPRPRPHCRPRP
- shrunken log2 fold change: 0.0105

Sequence: RRIRQRPPRLPRPRPRPHIMPRP
- shrunken log2 fold change: -0.669

Sequence: RRIRRRPPRLPRPRPRPDVDPRP
- shrunken log2 fold change: 0.505

Sequence: RRIRNRPPRLPRPRPRPKEYPRP
- shrunken log2 fold change: 0.199

Sequence: RRIRPRPPRLPRPRPRPCEDPRP
- shrunken log2 fold change: -0.119

Sequence: RRIRQRPPRLPRPRPRPWWMPRP
- shrunken log2 fold change: -0.0322

Sequence: RRIRQRPPRLPRPRPRPMSPPRP
- shrunken log2 fold change: -0.11

Sequence: RRIRIRPPRLPRPRPRPLRLPRP
- shrunken log2 fold change: 0.281

Sequence: RRIRKRPPRLPRPRPRPKCKPRP
- shrunken log2 fold change: 0.545

Sequence: RRIRSRPPRLPRPRPRPTTDPRP
- shrunken log2 fold change: 0.0457

Sequence: RRIRGRPPRLPRPRPRPPATPRP
- shrunken log2 fold change: 1.79

Sequence: RRIRARPPRLPRPRPRPCIKPRP
- shrunken log2 fold change: 0.126

Sequence: RRIRFRPPRLPRPRPRPCMSPRP
- shrunken log2 fold change: -0.0366

Sequence: RRIRTRPPRLPRPRPRPQKTPRP
- shrunken log2 fold change: -0.0581

Sequence: RRIRHRPPRLPRPRPRPHCYPRP
- shrunken log2 fold change: 0.0262

Sequence: RRIRKRPPRLPRPRPRPMRCPRP
- shrunken log2 fold change: 1.16

Sequence: RRIRIRPPRLPRPRPRPKVHPRP
- shrunken log2 fold change: -0.094

Sequence: RRIRWRPPRLPRPRPRPIINPRP
- shrunken log2 fold change: -0.609

Sequence: RRIRSRPPRLPRPRPRPVSGPRP
- shrunken log2 fold change: 0.00238

Sequence: RRIRPRPPRLPRPRPRPPRQPRP
- shrunken log2 fold change: 0.334

Sequence: RRIRYRPPRLPRPRPRPTMPPRP
- shrunken log2 fold change: -0.725

Sequence: RRIRERPPRLPRPRPRPLMQPRP
- shrunken log2 fold change: 0.0114

Sequence: RRIRSRPPRLPRPRPRPHVIPRP
- shrunken log2 fold change: -0.6

Sequence: RRIRVRPPRLPRPRPRPSQTPRP
- shrunken log2 fold change: 0.112

Sequence: RRIRVRPPRLPRPRPRPEFQPRP
- shrunken log2 fold change: -0.0311

Sequence: RRIRWRPPRLPRPRPRPGIQPRP
- shrunken log2 fold change: 0.468

Sequence: RRIRMRPPRLPRPRPRPKFRPRP
- shrunken log2 fold change: 0.169

Sequence: RRIRARPPRLPRPRPRPFGSPRP
- shrunken log2 fold change: -0.0315

Sequence: RRIRLRPPRLPRPRPRPWQVPRP
- shrunken log2 fold change: 0.0253

Sequence: RRIRRRPPRLPRPRPRPAVDPRP
- shrunken log2 fold change: 0.204

Sequence: RRIRQRPPRLPRPRPRPKLDPRP
- shrunken log2 fold change: 0.168

Sequence: RRIRARPPRLPRPRPRPGNAPRP
- shrunken log2 fold change: 0.73

Sequence: RRIRIRPPRLPRPRPRPCMFPRP
- shrunken log2 fold change: -0.738

Sequence: RRIRSRPPRLPRPRPRPPQEPRP
- shrunken log2 fold change: 0.295

Sequence: RRIRIRPPRLPRPRPRPDYDPRP
- shrunken log2 fold change: -0.00137

Sequence: RRIRPRPPRLPRPRPRPCIQPRP
- shrunken log2 fold change: -0.209

Sequence: RRIRFRPPRLPRPRPRPAVSPRP
- shrunken log2 fold change: -0.108

Sequence: RRIRVRPPRLPRPRPRPKMWPRP
- shrunken log2 fold change: 0.0893

Sequence: RRIRQRPPRLPRPRPRPHMWPRP
- shrunken log2 fold change: -0.129

Sequence: RRIRLRPPRLPRPRPRPRMPPRP
- shrunken log2 fold change: 0.352

Sequence: RRIRVRPPRLPRPRPRPNPYPRP
- shrunken log2 fold change: -0.376

Sequence: RRIRCRPPRLPRPRPRPSCFPRP
- shrunken log2 fold change: -0.205

Sequence: RRIRPRPPRLPRPRPRPTHQPRP
- shrunken log2 fold change: 0.615

Sequence: RRIRNRPPRLPRPRPRPETEPRP
- shrunken log2 fold change: -0.0793

Sequence: RRIRKRPPRLPRPRPRPRDKPRP
- shrunken log2 fold change: 0.116

Sequence: RRIRPRPPRLPRPRPRPHWGPRP
- shrunken log2 fold change: 0.0167

Sequence: RRIRWRPPRLPRPRPRPYAQPRP
- shrunken log2 fold change: -0.189

Sequence: RRIRHRPPRLPRPRPRPVRTPRP
- shrunken log2 fold change: 0.314

Sequence: RRIRWRPPRLPRPRPRPILDPRP
- shrunken log2 fold change: 0.187

Sequence: RRIRQRPPRLPRPRPRPAESPRP
- shrunken log2 fold change: 0.0234

Sequence: RRIRLRPPRLPRPRPRPGNAPRP
- shrunken log2 fold change: 0.0676

Sequence: RRIRGRPPRLPRPRPRPRACPRP
- shrunken log2 fold change: 0.847

Sequence: RRIRMRPPRLPRPRPRPHENPRP
- shrunken log2 fold change: 0.218

Sequence: RRIRCRPPRLPRPRPRPGALPRP
- shrunken log2 fold change: 0.264

Sequence: RRIRNRPPRLPRPRPRPGTYPRP
- shrunken log2 fold change: -0.0105

Sequence: RRIRMRPPRLPRPRPRPHYQPRP
- shrunken log2 fold change: -0.228

Sequence: RRIRQRPPRLPRPRPRPHDLPRP
- shrunken log2 fold change: -0.046

Sequence: RRIRDRPPRLPRPRPRPPIIPRP
- shrunken log2 fold change: -0.0464

Sequence: RRIRGRPPRLPRPRPRPNEHPRP
- shrunken log2 fold change: 0.435

Sequence: RRIRWRPPRLPRPRPRPAFPPRP
- shrunken log2 fold change: 0.446

Sequence: RRIRHRPPRLPRPRPRPAHFPRP
- shrunken log2 fold change: 0.165

Sequence: RRIRWRPPRLPRPRPRPVDKPRP
- shrunken log2 fold change: -0.0524

Sequence: RRIRGRPPRLPRPRPRPKLTPRP
- shrunken log2 fold change: 0.808

Sequence: RRIRQRPPRLPRPRPRPRFEPRP
- shrunken log2 fold change: 0.0165

Sequence: RRIRQRPPRLPRPRPRPVKSPRP
- shrunken log2 fold change: 0.169

Sequence: RRIRFRPPRLPRPRPRPFCCPRP
- shrunken log2 fold change: -0.225

Sequence: RRIRRRPPRLPRPRPRPHRGPRP
- shrunken log2 fold change: -0.0548

Sequence: RRIRWRPPRLPRPRPRPIAVPRP
- shrunken log2 fold change: 0.187

Sequence: RRIRYRPPRLPRPRPRPYAWPRP
- shrunken log2 fold change: -0.14

Sequence: RRIRVRPPRLPRPRPRPVDLPRP
- shrunken log2 fold change: 0.0988

Sequence: RRIRPRPPRLPRPRPRPPELPRP
- shrunken log2 fold change: 0.206

Sequence: RRIRERPPRLPRPRPRPQHNPRP
- shrunken log2 fold change: -0.771

Sequence: RRIRYRPPRLPRPRPRPWPMPRP
- shrunken log2 fold change: -0.0578

Sequence: RRIRARPPRLPRPRPRPQTEPRP
- shrunken log2 fold change: 0.292

Sequence: RRIRHRPPRLPRPRPRPWNEPRP
- shrunken log2 fold change: -0.171

Sequence: RRIRYRPPRLPRPRPRPKVHPRP
- shrunken log2 fold change: -0.677

Sequence: RRIRCRPPRLPRPRPRPTGLPRP
- shrunken log2 fold change: 0.106

Sequence: RRIRDRPPRLPRPRPRPVQIPRP
- shrunken log2 fold change: -0.0711

Sequence: RRIRSRPPRLPRPRPRPETLPRP
- shrunken log2 fold change: 0.0893

Sequence: RRIRDRPPRLPRPRPRPNVCPRP
- shrunken log2 fold change: -0.0195

Sequence: RRIRYRPPRLPRPRPRPLYVPRP
- shrunken log2 fold change: -0.465

Sequence: RRIRHRPPRLPRPRPRPHPPPRP
- shrunken log2 fold change: 0.261

Sequence: RRIRARPPRLPRPRPRPNWRPRP
- shrunken log2 fold change: 0.883

Sequence: RRIRVRPPRLPRPRPRPYPVPRP
- shrunken log2 fold change: -0.419

Sequence: RRIRHRPPRLPRPRPRPSKYPRP
- shrunken log2 fold change: -0.776

Sequence: RRIRYRPPRLPRPRPRPNTTPRP
- shrunken log2 fold change: -0.114

Sequence: RRIRSRPPRLPRPRPRPFRVPRP
- shrunken log2 fold change: 0.166

Sequence: RRIRVRPPRLPRPRPRPNDYPRP
- shrunken log2 fold change: -0.00419

Sequence: RRIRRRPPRLPRPRPRPTRRPRP
- shrunken log2 fold change: 0.853

Sequence: RRIRVRPPRLPRPRPRPFITPRP
- shrunken log2 fold change: -0.334

Sequence: RRIRYRPPRLPRPRPRPMGRPRP
- shrunken log2 fold change: -0.117

Sequence: RRIRHRPPRLPRPRPRPFCGPRP
- shrunken log2 fold change: 0.336

Sequence: RRIRDRPPRLPRPRPRPAQPPRP
- shrunken log2 fold change: 0.278

Sequence: RRIRMRPPRLPRPRPRPFWVPRP
- shrunken log2 fold change: -0.0112

Sequence: RRIRKRPPRLPRPRPRPHTMPRP
- shrunken log2 fold change: 0.205

Sequence: RRIRNRPPRLPRPRPRPWWRPRP
- shrunken log2 fold change: -0.0647

Sequence: RRIRHRPPRLPRPRPRPLHIPRP
- shrunken log2 fold change: -0.453

Sequence: RRIRCRPPRLPRPRPRPNDEPRP
- shrunken log2 fold change: -0.0298

Sequence: RRIRSRPPRLPRPRPRPEGFPRP
- shrunken log2 fold change: 0.272

Sequence: RRIRERPPRLPRPRPRPEKEPRP
- shrunken log2 fold change: 0.0662

Sequence: RRIRLRPPRLPRPRPRPVALPRP
- shrunken log2 fold change: 0.0145

Sequence: RRIRDRPPRLPRPRPRPSGEPRP
- shrunken log2 fold change: 0.0799

Sequence: RRIRLRPPRLPRPRPRPASEPRP
- shrunken log2 fold change: 0.159

Sequence: RRIRCRPPRLPRPRPRPNFAPRP
- shrunken log2 fold change: -0.098

Sequence: RRIRMRPPRLPRPRPRPVAMPRP
- shrunken log2 fold change: 0.57

Sequence: RRIRDRPPRLPRPRPRPFKHPRP
- shrunken log2 fold change: -0.264

Sequence: RRIRLRPPRLPRPRPRPLIAPRP
- shrunken log2 fold change: -0.498

Sequence: RRIRSRPPRLPRPRPRPHPNPRP
- shrunken log2 fold change: -0.239

Sequence: RRIRQRPPRLPRPRPRPCKFPRP
- shrunken log2 fold change: -0.194

Sequence: RRIRLRPPRLPRPRPRPYTWPRP
- shrunken log2 fold change: -0.716

Sequence: RRIRIRPPRLPRPRPRPSYTPRP
- shrunken log2 fold change: -1.06

Sequence: RRIRWRPPRLPRPRPRPYYEPRP
- shrunken log2 fold change: -0.742

Sequence: RRIRGRPPRLPRPRPRPEMIPRP
- shrunken log2 fold change: 1.92

Sequence: RRIRDRPPRLPRPRPRPGAQPRP
- shrunken log2 fold change: 1.02

Sequence: RRIRCRPPRLPRPRPRPPIPPRP
- shrunken log2 fold change: 0.31

Sequence: RRIRHRPPRLPRPRPRPIKDPRP
- shrunken log2 fold change: -0.299

Sequence: RRIRNRPPRLPRPRPRPFQPPRP
- shrunken log2 fold change: -0.0306

Sequence: RRIRGRPPRLPRPRPRPFRCPRP
- shrunken log2 fold change: 0.0939

Sequence: RRIRCRPPRLPRPRPRPVNIPRP
- shrunken log2 fold change: -0.971
